Values of other authors in PMC9214263.

Target: TNFα (Homo sapiens) (UniProt P01375)
Test: KinExA

TNFα (Homo sapiens), sequence (P01375 77-233): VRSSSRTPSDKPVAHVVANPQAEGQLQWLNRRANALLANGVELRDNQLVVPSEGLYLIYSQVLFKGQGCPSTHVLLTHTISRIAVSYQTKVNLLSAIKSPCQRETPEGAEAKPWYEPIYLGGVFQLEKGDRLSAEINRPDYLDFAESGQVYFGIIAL

For infliximab, the Kd is listed as 4.2 pM.
